The target of data set [1] is Human Hsc70 (HSPA8), wild type (human, UniProt P11142 1-646). Nature of the data set: HDX-MS.
The data set “SEC + native gel or EMSA” deals with the molecule itself. As to the kind of experiment: SEC + native gel or EMSA.

Human Hsc70 (HSPA8), wild type, sequence (P11142 whole entry): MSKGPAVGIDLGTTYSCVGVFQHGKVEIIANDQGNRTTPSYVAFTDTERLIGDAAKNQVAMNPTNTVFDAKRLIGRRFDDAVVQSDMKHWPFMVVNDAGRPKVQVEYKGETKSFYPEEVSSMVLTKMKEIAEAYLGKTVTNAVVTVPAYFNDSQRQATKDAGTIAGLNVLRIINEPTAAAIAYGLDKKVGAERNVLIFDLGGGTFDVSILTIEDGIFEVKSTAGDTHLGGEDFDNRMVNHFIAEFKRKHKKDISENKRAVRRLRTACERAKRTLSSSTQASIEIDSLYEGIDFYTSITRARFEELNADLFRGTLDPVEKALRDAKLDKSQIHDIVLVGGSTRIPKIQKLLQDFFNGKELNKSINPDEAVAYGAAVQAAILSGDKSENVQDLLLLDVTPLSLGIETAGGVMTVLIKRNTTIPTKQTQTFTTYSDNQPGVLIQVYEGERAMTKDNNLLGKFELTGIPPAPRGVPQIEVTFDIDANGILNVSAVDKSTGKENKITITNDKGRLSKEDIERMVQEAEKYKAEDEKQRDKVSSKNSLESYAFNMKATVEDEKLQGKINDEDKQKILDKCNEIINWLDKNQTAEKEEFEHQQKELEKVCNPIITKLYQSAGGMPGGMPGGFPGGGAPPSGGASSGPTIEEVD

B1: Human heat shock transcription factor 1 (Hsf1), wild type (natural protein)
chain: MDLPVGPGAAGPSNVPAFLTKLWTLVSDPDTDALICWSPSGNSFHVFDQGQFAKEVLPKYFKHNNMASFVRQLNMYGFRKVVHIEQGGLVKPERDDTEFQHPCFLRGQEQLLENIKRKVTSVSTLKSEDIKIRQDSVTKLLTDVQLMKGKQECMDSKLLAMKHENEALWREVASLRQKHAQQQKVVNKLIQFLISLVQSNRILGVKRKIPLMLNDSGSAHSMPKYSRQFSLEHVHGSGPYSAPSPAYSSSSLYAPDAVASSGPIISDITELAPASPMASPGGSIDERPLSSSPLVRVKEEPPSPPQSPRVEEASPGRPSSVDTLLSPTALIDSILRESEPAPASVTALTDARGHTDTEGRPPSPPPTSTPEKCLSVACLDKNELSDHLDAMDSNLDNLQTMLSSHGFSVDTSALLDLFSPSVTVPDMSLPDLDSSLASIQELLSPQEPPRPPEAENSSPDSGKQLVHYTAQPLFLLDPGSVDTGSNDLPVLFELGEGSYFSEGDGFAEDPTISLLTGSEPPKAKDPTVS
As for B1, in data set [1], the binding result is listed as “binds”.

B2: Hsf1-I190S,I194S (natural protein)
chain: MDLPVGPGAAGPSNVPAFLTKLWTLVSDPDTDALICWSPSGNSFHVFDQGQFAKEVLPKYFKHNNMASFVRQLNMYGFRKVVHIEQGGLVKPERDDTEFQHPCFLRGQEQLLENIKRKVTSVSTLKSEDIKIRQDSVTKLLTDVQLMKGKQECMDSKLLAMKHENEALWREVASLRQKHAQQQKVVNKLSQFLSSLVQSNRILGVKRKIPLMLNDSGSAHSMPKYSRQFSLEHVHGSGPYSAPSPAYSSSSLYAPDAVASSGPIISDITELAPASPMASPGGSIDERPLSSSPLVRVKEEPPSPPQSPRVEEASPGRPSSVDTLLSPTALIDSILRESEPAPASVTALTDARGHTDTEGRPPSPPPTSTPEKCLSVACLDKNELSDHLDAMDSNLDNLQTMLSSHGFSVDTSALLDLFSPSVTVPDMSLPDLDSSLASIQELLSPQEPPRPPEAENSSPDSGKQLVHYTAQPLFLLDPGSVDTGSNDLPVLFELGEGSYFSEGDGFAEDPTISLLTGSEPPKAKDPTVS
Take B2: the “stoichiometry N” value in “SEC + native gel or EMSA” came to 3.

The record behind these values is paper doi:10.1101/803361 (bioRxiv, 2019).
